Assay results published in paper PMC11198818, “Positive charges promote the recognition of proteins by the chaperone SlyD from Escherichia coli” (PLOS ONE, 2024).
Where a chain is given by its changes, count along the chain named.

Key:
Test in all cases: ITC; VP-ITC (MicroCal), 30°C, 10 mM potassium phosphate buffer pH 7.6 or 7.8; SlyD or its variant 30 uM in the calorimetric cell, HiPIP precursor (RR-HiPIP) injected: 100 uM, 2x 22 injections of 10 uL (Fig 4); 200 uM, 23 injections of 10 uL (Fig 3)
Settings in all cases: both partners purified
[1] = molecular target: T1, SlyD F96N, C-terminally hexahistidine-tagged (E. coli, UniProt P0A9K9 1-196, F96N)
T1 construct: FKBP-type peptidyl-prolyl cis-trans isomerase SlyD, E. coli; the tag is fused to the C-terminal domain; not shown: His6, C-terminal, kept
T1 sequence: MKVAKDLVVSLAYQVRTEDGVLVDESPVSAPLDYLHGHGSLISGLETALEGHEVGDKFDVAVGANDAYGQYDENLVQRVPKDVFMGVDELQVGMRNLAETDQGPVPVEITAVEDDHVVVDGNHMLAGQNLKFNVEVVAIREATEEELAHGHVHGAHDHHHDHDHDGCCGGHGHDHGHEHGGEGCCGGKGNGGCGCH

[2] = molecular target: T2, SlyD D101A, C-terminally hexahistidine-tagged (E. coli, UniProt P0A9K9 1-196, D101A)
T2 construct: FKBP-type peptidyl-prolyl cis-trans isomerase SlyD, E. coli; the tag is fused to the C-terminal domain; not shown: His6, C-terminal, kept
T2 sequence: T1 sequence with N96F, D101A

[3] = molecular target: T3, SlyD E113A, C-terminally hexahistidine-tagged (E. coli, UniProt P0A9K9 1-196, E113A)
T3 construct: FKBP-type peptidyl-prolyl cis-trans isomerase SlyD, E. coli; the tag is fused to the C-terminal domain; not shown: His6, C-terminal, kept
T3 sequence: T1 sequence with N96F, E113A

[4] = molecular target: T4, SlyD D115A, C-terminally hexahistidine-tagged (E. coli, UniProt P0A9K9 1-196, D115A)
T4 construct: FKBP-type peptidyl-prolyl cis-trans isomerase SlyD, E. coli; the tag is fused to the C-terminal domain; not shown: His6, C-terminal, kept
T4 sequence: T1 sequence with N96F, D115A

[5] = molecular target: T5, SlyD from Escherichia coli, C-terminally hexahistidine-tagged, wild type (E. coli, UniProt P0A9K9 1-196)
T5 construct: FKBP-type peptidyl-prolyl cis-trans isomerase SlyD, E. coli; the tag is fused to the C-terminal domain; also called WT; wt; not shown: His6, C-terminal, kept
T5 sequence: T1 sequence with N96F

[6] = molecular target: T6, SlyD E73A, C-terminally hexahistidine-tagged (E. coli, UniProt P0A9K9 1-196, E73A)
T6 construct: FKBP-type peptidyl-prolyl cis-trans isomerase SlyD, E. coli; the tag is fused to the C-terminal domain; not shown: His6, C-terminal, kept
T6 sequence: T1 sequence with E73A, N96F

B1: HiPIP precursor (RR-HiPIP) from Allochromatium vinosum (natural protein)
chain: MSDKPISKSRRDAVKVMLGTAAAIPMINLVGFGTARASAPANAVAADDATAIALKYNQDATKSERVAAARPGLPPEEQHCANCQFMQADAAGATDEWKGCQLFPGKLINVNGWCASWTLKAG
modifications: HiPIP precursor; fully folded, [4Fe-4S] cluster presumed; signal peptide retained
- Kd [1]: 8850 ± 2780 nM
- stoichiometry N [1]: 0.628 ± 0.036
- stoichiometry N [2]: 0.604 ± 0.012
- Kd [3]: 490 ± 70 nM
- stoichiometry N [3]: 0.616 ± 0.008
- Kd [4]: 270 ± 20 nM
- stoichiometry N [4]: 0.541 ± 0.026
- stoichiometry N [5]: 0.71 ± 0.002
- Kd [6]: 320 ± 20 nM
- stoichiometry N [6]: 0.616 ± 0.003
